Measurements from patent publication US5849558.

Tested on: PspGI restriction endonuclease (recombinant, pPspGIR70) (Pyrococcus species G-I-H)
Assay: cleavage_in_vitro
Conditions: approximate titer of crude extract on T7 DNA; NEBuffer III, 65 C 1 h

Q: Which activity (units/g cells) does the source give for T7 DNA here?
A: 20000
